In publication PMC9063470, “Ultrasensitive fluorescent aptasensor for CRP detection based on the RNase H assisted DNA recycling signal amplification strategy”:

Experiments:
C-reactive protein (CRP) = target: T1, C-reactive protein (CRP) (UniProt P02741 19-224); test: fluorescent strand-displacement aptasensor (RNase H recycling, GO quenching); CRP 10 ng/mL; P1 strand released from Ap/P1; 20 mM Tris-HCl, 40 mM KCl, 8 mM MgCl2, 1 mM DTT, pH 7.8; 20 min Ap/P1 + CRP incubation; temperature not stated; settings: chain copies: 5; label: none (5-FAM is on the reporter RNA S3, not on Ap or P1); partial duplex: P1 (23 nt) pairs with Ap nt 48-70; 47 nt 5' and 2 nt 3' single-stranded Ap overhangs
T1 sequence: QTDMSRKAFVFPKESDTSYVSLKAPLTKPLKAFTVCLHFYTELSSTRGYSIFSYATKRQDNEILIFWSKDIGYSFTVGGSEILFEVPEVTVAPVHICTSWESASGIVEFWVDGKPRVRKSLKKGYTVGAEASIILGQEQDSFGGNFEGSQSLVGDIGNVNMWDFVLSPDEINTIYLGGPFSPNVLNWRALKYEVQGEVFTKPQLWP

BNP = BNP (UniProt P16860 103-134); test: fluorescent strand-displacement aptasensor (RNase H recycling, GO quenching); 50 ng/mL; negligible signal; 20 mM Tris-HCl, 40 mM KCl, 8 mM MgCl2, 1 mM DTT, pH 7.8; 20 min Ap/P1 + CRP incubation; temperature not stated; settings: label: none (5-FAM is on the reporter RNA S3, not on Ap or P1); partial duplex: P1 (23 nt) pairs with Ap nt 48-70; 47 nt 5' and 2 nt 3' single-stranded Ap overhangs
Sequence of BNP (P16860 103-134): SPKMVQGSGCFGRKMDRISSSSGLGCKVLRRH

MB = target: T2, MB (UniProt P02144 2-154); test: as above; settings: label: none (5-FAM is on the reporter RNA S3, not on Ap or P1); partial duplex: P1 (23 nt) pairs with Ap nt 48-70; 47 nt 5' and 2 nt 3' single-stranded Ap overhangs
T2 sequence: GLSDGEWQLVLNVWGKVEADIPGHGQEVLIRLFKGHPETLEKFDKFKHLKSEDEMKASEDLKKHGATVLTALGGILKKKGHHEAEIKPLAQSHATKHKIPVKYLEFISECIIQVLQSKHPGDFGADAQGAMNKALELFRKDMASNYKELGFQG

B1: CRP aptamer (Ap) presented as Ap/P1 complex (mixed)
DNA 1: GGCAGGAAGACAAACATATAATTGAGATCGTTTGATGACTTTGTAAGAGTGTGGAATGGTCTGTGGTGCTGT
DNA 2: AGCACCACAGACCATTCCACACT
**Q.** Does B1 bind (C-reactive protein (CRP))?
**A.** binds

**Q.** Does B1 bind (BNP)?
**A.** no binding

**Q.** Does B1 bind (MB)?
**A.** no binding
